Reference: patent US6346249 (LUDWIG INSTITUTE FOR CANCER RESEARCH, dated 2002)

T1: recombinant human A33 antigen (human, UniProt Q99795 22-233, limits assumed)
T1 construct: also called human antigen A33; immobilized recombinant human A33
T1 sequence (looked up): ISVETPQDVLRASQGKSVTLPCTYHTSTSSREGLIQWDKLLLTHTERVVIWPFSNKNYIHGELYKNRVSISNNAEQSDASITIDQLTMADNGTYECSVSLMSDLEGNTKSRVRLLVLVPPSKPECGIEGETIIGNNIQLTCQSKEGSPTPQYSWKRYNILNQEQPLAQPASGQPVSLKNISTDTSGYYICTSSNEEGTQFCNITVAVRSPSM


What was measured:
[1] = biological target: T1, recombinant human A33 antigen; experiment: SPR (Biacore), recombinant human A33 immobilized on CM5 chip; Kd calculated from koff/kon
Experimental: (§1) The binding strength was determined by surface plasmon resonance in accordance with Rader, et al., Proc. Natl. Acad. Sci USA 95(15): 8910–8915 (1998), incorporated by reference. Briefly, the determination of association ($kon$) and dissociation ($koff$) rate constants for binding of rabbit and humanized Fab to recombinant human A33 antigen was performed on a Biacore instrument (Biacore AB, Uppsala, Sweden). A CM5 sensor chip (Biacore AB) was activated for immobilization with Nhydroxysuccinimide and N-ethyl-N'-(3-dimethylaminopropyl)carbodiimide according to standard methods. Recombinant human A33 antigen was coupled at a low density to the surface by injection of 30 µl to 40 µl of a 1 ng/µl sample in 10 mM sodium acetate (pH 3.5). Approximately 500 resonance units were immobilized. Subsequently, the sensor chip was deactivated with 1 M ethanolamine hydrochloride (pH 8.5). Binding of Fab to immobilized A33 antigen was studied by injection of Fab at 5 different concentrations ranging from 75 nM to 200 nM. PBS was used as the running buffer. The sensor chip was regenerated with 20 mM HCl and remained active for at least 50 measurements. The $kon$ and $koff$ values were calculated using Biacore AB evaluation software. The equilibrium dissociation constant K_d was calculated from $koff/kon$.
Association ($kon$) and dissociation ($koff$) rate constant were determined using surface plasmon resonance. Human antigen A33 was immobilized on the sensor chip. The dissociation constant (K_d) was calculated from […].

[2] = biological target: T1, recombinant human A33 antigen; experiment: SPR (Biacore), recombinant human A33 immobilized on CM5 chip, Fab injected at 75-200 nM
Experimental: as §1
Figure 6: FIG. 6 depicts representative Biacore sensorgrams obtained for the binding of rabbit Fab 1 to immobilized human A33 antigen. For association, Fab were injected at 5 different concentrations (200 nM, 150 nM, 125 nM, 100 nM, 75 nM, top to bottom) between t=125 and t=370 seconds, using a flow rate of 5 µl/minute. For dissociation, the flow rate was increased to 50 µl/minute resonance units (RU).

Binder	Kd [1]	koff [2]	kon [2]
rabbit Fab 1 (rabbit VH1, VL1; chimeric rabbit/human Fab) (Fab, V domains shown, Soluble Fab from E. coli; also called rabbit 1; rabbit clone 1) VH: QQQVMESGGGLVTLGGSLTLTCKASGIDFSNNGISWVRQAPGKGLEWILYIYPDYGSTDYASWVNGRFTISLDNAQNTVFLQMTSLTAADTATYFCARDRGAYAGSRGTRLDLWGQGTLVTVSS VL: EFDMTQTPPSLSASVGETVRIRCLASEFLFNGVSWYQQKPGKPPKFLISGASNLESGVPPRFSGSGSGTDYTLTIGGVQAEDVATYYCLGGYSGSSGLTFGAGTNVEIK	0.39 nM	0.00012 s⁻¹	307000 M⁻¹ s⁻¹
humanized Fab B (human VLB and human VHB) (Fab, V domains shown) VH: EVQVMESGGGLVKPGGSLRLSCAASGIGFSHYGISWVRQAPGKGLEWVSYIYPNYGSVDYASSVNGRFTISLDNAQNSLYLQMNSLRAEDTAVYFCARDRGYYSGSRGTRLDLWGQGTLVTVSS VL: ELQMTQSPSSLSASVGDRVTITCLASEFLFNGVSWYQQKPGKVPKFLIYGASNLESGVPSRFSGSGSGTDFTLTISSLQPEDVATYYCLGGYSGSSGLTFGGGTKVEIK	1.7 nM	0.00061 s⁻¹	352000 M⁻¹ s⁻¹
humanized Fab C (human VLC and human VHC) (Fab, V domains shown) VH: EVQVMESGGGLVKPGGSLRLSCAASGIDFSHYGISWVRQAPGKGLEWVSYIYPNYGSVDYASSVNGRFTISLDNAQNSLYLQMNSLRAEDTAVYYCARDRGYYSGSRGTRLDLWGQGTLVTVSS VL: ELQMTQSPSSLSASVGDRVTITCLASEFLFNGVSWYQQKPGKAPKFLIYGASNLESGVPSRFSGSGSGTDFTLTISSLQPEDVATYYCLGGYSGSSGLTFGGGTKVEIK	18.1 nM	0.00197 s⁻¹	109000 M⁻¹ s⁻¹
humanized Fab D (human VLD and human VHD) (Fab, V domains shown) VH: EVQVMESGGGLVKPGGSLRLSCAASGIDFSHYGISWVRQAPGKGLEWVSYIYPNYGSVDYASSVNGRFTISLDNAQNSLYLQMNSLRAEDTAVYFCARDRGYYSGSRGTRLDLWGQGTLVTVSS VL: ELQMTQSPSSLSASVGDRVTITCLASEFLFNGVSWYQQKPGKVPKFLIYGASNLESGVPSRFSGSGSGTDYTLTISSLQPEDVATYYCLGGYSGSSGLTFGGGTKVEIK	29.2 nM	0.0019 s⁻¹	65000 M⁻¹ s⁻¹
humanized Fab E (human VLE and human VHE) (Fab, V domains shown) VH: EVQVMESGGGLVKPGGSLRLSCAASGFTFSHYGISWVRQAPGKGLEWVSYIYPNYGSVDYASSVNGRFTISFDNAQNSVYLQMNSLRAEDTAVYYCARDRGYYSGSRGTRLDLWGQGTLVTVSS VL: ELQMTQSPSSLSASVGDRVTITCLASEFLFNGVSWYQQKPGKAPKLLIYGASNLESGVPSRFSGSGSGTDYTLTISSLQPEDVATYYCLGGYSGSSGLTFGGGTKVEIK	7.7 nM	0.0005 s⁻¹	65000 M⁻¹ s⁻¹
humanized Fab F (human VLF and human VHF) (Fab, V domains shown) VH: EVQVMESGGGLVKPGGSLRLSCAASGIGFSHYGISWVRQAPGKGLEWVSYIYPNYGSVDYASSVNGRFTISLDNAQNSLYLQMNSLRAEDTAVYYCARDRGYYSGSRGTRLDLWGQGTLVTVSS VL: ELQMTQSPSSLSASVGDRVTITCLASEFLFNGVSWYQQKPGKAPKFLIYGASNLESGVPSRFSGSGSGTDFTLTISSLQPEDVATYYCLGGYSGSSGLTFGGGTKVEIK	3.5 nM	0.00068 s⁻¹	192000 M⁻¹ s⁻¹
humanized Fab A (human VLA and human VHA) (Fab, V domains shown) VH: EVQVMESGGGLVKPGGSLRLSCAASGIDFSHYGISWVRQAPGKGLEWVSYIYPNYGSVDYASSVNGRFTISFDNAQNSLYLQMNSLRAEDTAVYYCARDRGYYSGSRGTRLDLWGQGTLVTVSS VL: ELQMTQSPSSLSASVGDRVTITCLASEFLFNGVSWYQQKPGKVPKFLIYGASNLESGVPSRFSGSGSGTDYTLTISSLQPEDVATYYCLGGYSGSSGLTFGGGTKVEIK	5.6 nM	0.00059 s⁻¹	105000 M⁻¹ s⁻¹
